PMC5224519, “Developing the IVIG biomimetic, Hexa-Fc, for drug and vaccine applications” (Scientific Reports, 2015)

What was measured:
[1] = biological target: soluble recombinant human DC-SIGN tetramers (human) (UniProt Q9NNX6); assay: ELISA; binding to human DC-SIGN of Igs untreated or treated with PNGase F, Endo S or Endo H (Figure S8); format not told in the text shown
hIgG1-Fc-CL309/310CH-TP = assay: non-reducing SDS-PAGE (blot and Coomassie); 5 μg purified Fc on 4-12% bis-Tris gradient gels, non-reducing or reducing; blot with goat anti-human IgG or Coomassie blue
[2] = biological target: soluble recombinant human DC-SIGN tetramers (human) (UniProt Q9NNX6); assay: SPR; multichannel SPR (ProteOn XPR36); DC-SIGN or SIGNR1 amine-coupled on GLM chips; Ig preparations or gp120 as analytes, 25°C, 25 μl per minute; 1:1 Langmuir model
[3] = biological target: recombinant SIGNR1 (mouse) (UniProt Q8CJ91); assay: as above
[4] = biological target: T1, soluble recombinant human DC-SIGN tetramers (human, UniProt Q9NNX6 1-404); assay: as above; settings: both partners purified
T1 construct: human DC-SIGN, soluble recombinant; also called dendritic cell-specific intercellular adhesion molecule-3-grabbing non-integrin
T1 sequence (looked up): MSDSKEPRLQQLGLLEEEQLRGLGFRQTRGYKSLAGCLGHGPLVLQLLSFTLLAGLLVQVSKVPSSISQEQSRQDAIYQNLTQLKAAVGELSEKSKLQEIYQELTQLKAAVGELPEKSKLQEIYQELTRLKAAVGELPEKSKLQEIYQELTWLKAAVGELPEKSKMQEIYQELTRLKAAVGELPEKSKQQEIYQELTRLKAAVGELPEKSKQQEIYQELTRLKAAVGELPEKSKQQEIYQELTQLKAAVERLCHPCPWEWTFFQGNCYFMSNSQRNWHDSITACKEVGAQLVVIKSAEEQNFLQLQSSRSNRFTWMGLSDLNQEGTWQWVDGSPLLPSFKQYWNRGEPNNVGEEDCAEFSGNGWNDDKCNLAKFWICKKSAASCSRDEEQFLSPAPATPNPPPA

recombinant SIGNR1 = biological target: T2, recombinant SIGNR1 (mouse, UniProt Q8CJ91 1-325); assay: as above; settings: both partners purified
T2 construct: mouse SIGNR1, soluble recombinant; also called the mouse orthologue of the human DC-SIGN; source: bought: R&D systems
T2 sequence (looked up): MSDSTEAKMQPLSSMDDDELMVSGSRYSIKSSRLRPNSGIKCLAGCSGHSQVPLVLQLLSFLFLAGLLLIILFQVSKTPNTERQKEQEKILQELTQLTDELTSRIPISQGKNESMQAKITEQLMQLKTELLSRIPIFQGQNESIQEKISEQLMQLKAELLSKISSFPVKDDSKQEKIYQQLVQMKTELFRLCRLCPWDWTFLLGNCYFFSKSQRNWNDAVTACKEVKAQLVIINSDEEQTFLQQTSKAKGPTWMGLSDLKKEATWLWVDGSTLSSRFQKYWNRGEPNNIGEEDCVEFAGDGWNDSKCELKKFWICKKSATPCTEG

Molecule: PNGase F treated human IgM (antibody)
- residual binding [1]: 50%

Molecule: hIgG1-Fc-CL309/310CH-TP
- stoichiometry N (hIgG1-Fc-CL309/310CH-TP): 6

Molecule: hexameric-Fc (hexa-Fc), hIgG1-Fc-TP-LH309/310CL
- Kd [2]: 1260 nM
- koff [2]: 0.000839 s⁻¹
- kon [2]: 668 M⁻¹ s⁻¹

Molecule: recombinant HIV gp120 (natural protein)
- Kd [2]: 4.39 nM
- koff [2]: 0.000158 s⁻¹
- kon [2]: 36000 M⁻¹ s⁻¹
- Kd [3]: 3.91 nM
- koff [3]: 9.46e-05 s⁻¹
- kon [3]: 27700 M⁻¹ s⁻¹

B1: CHO cell derived recombinant (hexameric) IgM-Fc (domain or fragment)
chain: IAELPPKVSVFVPPRDGFFGNPRKSKLICQATGFSPRQIQVSWLREGKQVGSGVTTDQVQAEAKESGPTTYKVTSTLTIKESDWLGQSMFTCRVDHRGLTFQQNASSMCVPDQDTAIRVFAIPPSFASIFLTKSTKLTCLVTDLTTYDSVTISWTRQNGEAVKTHTNISESHPNATFSAVGEASICEDDWNSGERFTCTVTHTDLPSPLKQTISRPKGVALHRPDVYLLPPAREQLNLRESATITCLVTGFSPADVFVQWMQRGQPLSPEKYVTSAPMPEPQAPGRYFAHSILTVSEEEWNTGETYTCVVAHEALPNRVTERTVDKSTGKPTLYNVSLVMSDTAGTCY
modifications: CHO-cell N-glycans; disulfide-linked hexamer. Limits taken as Cmu2-Cmu4 plus tailpiece; needs the secreted isoform (453 aa), not the 474-aa membrane form displayed as P01871
- Kd [4]: 260 nM
- Kd (recombinant SIGNR1): 2200 nM
